The values below come from article PMC9820991, “Elucidating the Interaction between Pyridoxine 5′-Phosphate Oxidase and Dopa Decarboxylase: Activation of B6-Dependent Enzyme” (International Journal of Molecular Sciences, 2022).

The target in test [1] is AAT (UniProt P17174). The experiment in a line: FP/SPR. The note with it: cited from earlier work.
Another test deals with GAD (UniProt Q99259). Nature of the test: FP/SPR. Particulars: cited from earlier work.
The target of test [2] is AAT (UniProt P17174). Nature of the test: fluorescence spectroscopy. Particulars: cited from earlier work.
Test [3] addresses T1, human dopa decarboxylase, holo form (human, UniProt P20711 1-480, PLP as internal aldimine on Lys303).
T1 construct: also called holoDDC; DDC; source: E. coli BL21(DE3)pLysS, purified (Histrap Ni2+ column, dialysis against PLP); not shown: His tag (from the Histrap column)
T1 sequence (looked up): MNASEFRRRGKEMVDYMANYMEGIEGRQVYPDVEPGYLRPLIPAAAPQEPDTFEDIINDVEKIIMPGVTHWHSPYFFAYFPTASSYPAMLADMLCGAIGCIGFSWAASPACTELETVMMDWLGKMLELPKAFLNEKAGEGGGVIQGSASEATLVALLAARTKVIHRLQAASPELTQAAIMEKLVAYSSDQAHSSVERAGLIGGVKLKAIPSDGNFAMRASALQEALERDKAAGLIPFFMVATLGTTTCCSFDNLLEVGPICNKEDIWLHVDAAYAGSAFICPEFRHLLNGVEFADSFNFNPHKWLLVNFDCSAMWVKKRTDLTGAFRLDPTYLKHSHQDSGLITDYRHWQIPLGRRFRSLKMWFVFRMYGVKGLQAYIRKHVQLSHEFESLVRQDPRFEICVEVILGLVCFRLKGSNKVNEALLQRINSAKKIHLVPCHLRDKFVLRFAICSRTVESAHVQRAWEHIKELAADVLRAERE
Nature of the test: ITC; PNPO titrated into holoDDC or apoDDC in the cell; MICROCAL PEAQ-ITC, 25 °C, 19 injections of 2 µL; 50 mM potassium phosphate pH 7.4, 150 mM NaCl; at least triplicate. Particulars: both partners purified. A general note: Isothermal titration calorimetry measures the heat released or taken up as one component is titrated into another.

In test [4] the target is T2, human dopa decarboxylase, apo form (human, UniProt P20711 1-480).
T2 construct: same chain as m2 without PLP; Made from holoDDC by removal of the cofactor; also called apoDDC; source: E. coli BL21(DE3)pLysS, purified (Histrap Ni2+ column); PLP removed with 5 mM hydroxylamine and dialysis; not shown: His tag (from the Histrap column)
T2 sequence (looked up): T1 sequence (looked up)
The test is described as above. Particulars: both partners purified.

Test [5] deals with T1, human dopa decarboxylase, holo form. The experiment in a line: SPR; Biacore T200, 25 °C; apoDDC, holoDDC and holoSHMT immobilised on a CM5 chip by amine coupling; analytes PNPO and albumin 100 to 1.5625 µM in PBS-P (10 mM phosphate pH 7.4, 140 mM NaCl, 3 mM KCl, 0.05% P20), 50 µL/min. Particulars: both partners purified. Background: Surface plasmon resonance follows binding to a sensor surface in real time, without labels.

For test [6], the target named is T3, serine hydroxymethyltransferase (rabbit cytoplasmic), holo form (rabbit, UniProt P07511 1-484, PLP cofactor (holo form), residue not stated).
T3 construct: rabbit cytoplasmic serine hydroxymethyltransferase, recombinant, holo form; Positive control of the SPR experiment; also called holoSHMT; SHMT
T3 sequence (looked up): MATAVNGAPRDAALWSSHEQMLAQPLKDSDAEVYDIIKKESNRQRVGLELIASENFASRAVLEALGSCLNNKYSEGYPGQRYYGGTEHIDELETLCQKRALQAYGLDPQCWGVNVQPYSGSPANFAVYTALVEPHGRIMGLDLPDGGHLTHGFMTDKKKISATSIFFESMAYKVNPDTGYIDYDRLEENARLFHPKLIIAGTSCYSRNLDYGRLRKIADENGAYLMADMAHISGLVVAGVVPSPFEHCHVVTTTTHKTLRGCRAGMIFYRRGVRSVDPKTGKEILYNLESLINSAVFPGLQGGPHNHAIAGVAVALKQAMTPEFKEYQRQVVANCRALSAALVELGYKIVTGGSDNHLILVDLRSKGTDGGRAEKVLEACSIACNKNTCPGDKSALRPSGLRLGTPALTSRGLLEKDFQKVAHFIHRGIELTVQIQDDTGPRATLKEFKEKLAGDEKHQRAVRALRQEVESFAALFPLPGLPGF
The description is as above. Particulars: both partners purified.

AAT, sequence (P17174 2-413): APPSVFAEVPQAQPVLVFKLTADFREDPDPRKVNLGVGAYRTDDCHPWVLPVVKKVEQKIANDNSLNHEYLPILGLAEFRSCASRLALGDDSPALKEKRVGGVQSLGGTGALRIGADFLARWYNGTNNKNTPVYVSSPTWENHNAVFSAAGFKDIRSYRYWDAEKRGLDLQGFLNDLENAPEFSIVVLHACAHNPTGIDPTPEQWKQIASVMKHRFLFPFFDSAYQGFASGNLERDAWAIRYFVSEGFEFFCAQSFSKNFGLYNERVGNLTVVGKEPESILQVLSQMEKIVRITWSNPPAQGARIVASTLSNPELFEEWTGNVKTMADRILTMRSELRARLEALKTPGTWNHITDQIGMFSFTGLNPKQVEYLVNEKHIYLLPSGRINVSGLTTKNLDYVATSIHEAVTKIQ
GAD, sequence (Q99259 whole entry): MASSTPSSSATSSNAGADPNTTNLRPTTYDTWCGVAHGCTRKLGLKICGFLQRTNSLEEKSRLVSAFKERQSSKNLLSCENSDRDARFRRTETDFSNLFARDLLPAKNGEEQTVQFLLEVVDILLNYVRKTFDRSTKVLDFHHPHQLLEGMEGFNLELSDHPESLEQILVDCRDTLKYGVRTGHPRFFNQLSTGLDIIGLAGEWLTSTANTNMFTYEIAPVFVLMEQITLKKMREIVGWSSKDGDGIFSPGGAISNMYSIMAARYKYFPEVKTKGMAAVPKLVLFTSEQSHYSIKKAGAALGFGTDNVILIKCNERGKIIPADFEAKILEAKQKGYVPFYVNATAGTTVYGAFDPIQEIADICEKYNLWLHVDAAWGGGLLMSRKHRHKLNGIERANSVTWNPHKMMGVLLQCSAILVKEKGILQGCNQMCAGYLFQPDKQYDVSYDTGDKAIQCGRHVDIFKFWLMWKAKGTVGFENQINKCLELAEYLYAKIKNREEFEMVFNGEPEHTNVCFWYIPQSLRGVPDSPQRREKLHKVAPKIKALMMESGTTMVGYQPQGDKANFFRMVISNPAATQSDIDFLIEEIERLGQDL

As a reminder, the Kd is the concentration at which binding is half-saturated. In the case of PLK (from UniProt O00764), the Kd with AAT [1] is 4900 nM; with GAD, 2700 nM; with AAT [2] it was 3000 nM.

B1: human pyridoxine 5′-phosphate oxidase (enzyme, UniProt Q9NVS9 1-261, looked up)
chain: MTCWLRGVTATFGRPAEWPGYLSHLCGRSAAMDLGPMRKSYRGDREAFEETHLTSLDPVKQFAAWFEEAVQCPDIGEANAMCLATCTRDGKPSARMLLLKGFGKDGFRFFTNFESRKGKELDSNPFASLVFYWEPLNRQVRVEGPVKKLPEEEAECYFHSRPKSSQIGAVVSHQSSVIPDREYLRKKNEELEQLYQDQEVPKPKSWGGYVLYPQVMEFWQGQTNRLHDRIVFRRGLPTGDSPLGPMTHRGEEDWLYERLAP
notes: human pyridoxine 5′-phosphate oxidase (PNPO), recombinant; FMN-dependent enzyme; FMN was present during lysis and the first dialysis; also called PNPO; hPNPO; source: E. coli, purified (Histrap Ni2+ column, dialysis)
One may read the stoichiometry N as a count of units in the complex or per binding partner. For the molecule B1, the dissociation constant (Kd) in test [3] stood at 2590 ± 110 nM; in test [4] it was 920 ± 70 nM; in test [5], 3700 nM; in test [6] it was 15400 nM. Also, the figures for the dH in test [3] and in test [4] were -2.33 ± 0.1 kcal/mol and -3.03 ± 0.1 kcal/mol, respectively. The “stoichiometry N” value was 0.94 ± 0.04 in test [3] and 0.52 ± 0.01 in test [4].
